Where no end group is shown, it is not given here.
Assays:
Anti-PSMA Fab [1] = molecular target: T1, Anti-PSMA Fab; assay: phage binding ELISA; clonal phage supernatant on biotinylated anti-PSMA Fab captured on neutravidin plate; anti-M13-HRP detection
T1 construct: Biotinylated and captured on neutravidin coated plates in the phage ELISA; also called 006 PSMA Fab
Description: (§1) Clonal phage were harvested as crude supernatants and screened via standard ELISAs. […] Prior to the addition of clonal phage. wells were incubated with blocking buffer and PSMA antigen or blocking buffer alone. Without washing or aspirating, clonal phage supernatants were then added to the wells and incubated for a short time. Wells were then washed followed by detection of bound phage using a horse radish conjugated anti-M13 antibody.

Anti-PSMA Fab [2] = molecular target: T1, Anti-PSMA Fab; assay: phage binding ELISA on captured anti-PSMA Fab; wells pre-incubated with PSMA antigen as competitor; anti-M13-HRP detection
Description: as §1

PSMA Fab [3] = molecular target: T2, PSMA Fab (biotinylated (site not stated)); assay: clonal phage ELISA on biotinylated PSMA Fab captured on neutravidin, anti-M13 HRP detection;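 note: crude clonal phage supernatants added to wells pretreated with PSMA antigen in blocking buffer or with blocking buffer only, then briefly incubated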
T2 construct: Biotinylated PSMA Fab captured on neutravidin coated plates in the phage ELISA; also called Anti-PSMA Fab; 006 PSMA Fab

PSMA Fab [4] = molecular target: T2, PSMA Fab; assay: clonal phage ELISA on captured PSMA Fab, competitor PSMA antigen pre-incubated
Description: as §1

PSMA Fab (006 PSMA Fab) [5] = molecular target: T3, PSMA Fab (006 PSMA Fab); assay: clonal phage ELISA on biotinylated PSMA Fab captured on neutravidin, anti-M13 HRP detection;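 note: crude clonal phage supernatants added to wells pretreated with PSMA antigen in blocking buffer or with blocking buffer only, then briefly incubated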
T3 construct: also called Anti-PSMA Fab
Description: as §1

PSMA Fab (006 PSMA Fab) [6] = molecular target: T3, PSMA Fab (006 PSMA Fab); assay: clonal phage ELISA on captured PSMA Fab, wells pre-incubated with PSMA antigen as competitor
Description: as §1

[7] = molecular target: T4, PSMA Fab (006 PSMA Fab), biotinylated (biotinylated (site and chain not stated)); assay: phage ELISA; biotinylated PSMA Fab on neutravidin plate, wells first incubated with PSMA antigen as competitor, HRP anti-M13 detection
T4 construct: also called Anti-PSMA Fab; anti-PSMA Fab

[8] = molecular target: T4, PSMA Fab (006 PSMA Fab), biotinylated; assay: phage ELISA; biotinylated PSMA Fab on neutravidin plate, blocking buffer alone, bound phage detected with HRP anti-M13 antibody
Description: as §1

Binder: PSPICRPEWMCVWL (Tested as clonal phage supernatant) [Phage-3584 (Peptide-180 library clone)]
- Phage binding ELISA signal, Anti-PSMA Fab (Anti-PSMA Fab [1]): 1.61
- Phage binding ELISA signal, Anti-PSMA Fab with PSMA antigen (Anti-PSMA Fab [2]): 0.0954

Binder: WEVRCEPAWMCIGL [Phage-3600]
- Phage binding ELISA signal, Anti-PSMA Fab (PSMA Fab [3]): 1.59
- Phage binding ELISA signal, Anti-PSMA Fab with PSMA antigen (PSMA Fab [4]): 0.0694

Binder: EGLRCVPAWMCAGF [Phage-3603]
- Phage binding ELISA signal, Anti-PSMA Fab (PSMA Fab [3]): 1.58
- Phage binding ELISA signal, Anti-PSMA Fab with PSMA antigen (PSMA Fab [4]): 0.0633

B1: Phage-3574 (peptide)
peptide: EDIKCIPRWMCEGF
notes: Peptide-180 library clone, tested as clonal phage supernatant with the peptide fused to pIII of the bacteriophage
- Phage binding ELISA signal, Anti-PSMA Fab (PSMA Fab (006 PSMA Fab) [5]): 1.62
- Phage binding ELISA signal, Anti-PSMA Fab in presence of PSMA (PSMA Fab (006 PSMA Fab) [6]): 0.0923

Binder: QDLKCVPSWMCSGF [Phage-3599]
- Phage binding ELISA signal, Anti-PSMA Fab (PSMA Fab [3]): 1.59
- Phage binding ELISA signal, Anti-PSMA Fab with PSMA antigen (PSMA Fab [4]): 0.0713

B2: Phage-3609, clonal phage showing a Peptide-180 library peptide (peptide)
peptide: SHMVCKPTWMCQGF
notes: Tested as crude clonal phage supernatant; not shown: pIII filament protein of the bacteriophage, fused to the peptide
- Phage binding ELISA signal, Anti-PSMA Fab with PSMA antigen [7]: 0.074
- Phage binding ELISA signal, Anti-PSMA Fab [8]: 1.58

Binder: TTLMCTPQWMCDGF (Tested as clonal phage supernatant) [Phage-3589 (Peptide-180 library clone)]
- Phage binding ELISA signal, Anti-PSMA Fab (Anti-PSMA Fab [1]): 1.6
- Phage binding ELISA signal, Anti-PSMA Fab with PSMA antigen (Anti-PSMA Fab [2]): 0.0718

B3: Phage-3572 (peptide)
peptide: VPTLCKPSWMCYGF
notes: as for B1
- Phage binding ELISA signal, Anti-PSMA Fab (PSMA Fab (006 PSMA Fab) [5]): 1.62
- Phage binding ELISA signal, Anti-PSMA Fab in presence of PSMA (PSMA Fab (006 PSMA Fab) [6]): 0.0941

Binder: ETFTCKPPWMCIGF (Tested as clonal phage supernatant) [Phage-3576 (Peptide-180 library clone)]
- Phage binding ELISA signal, Anti-PSMA Fab (Anti-PSMA Fab [1]): 1.62
- Phage binding ELISA signal, Anti-PSMA Fab with PSMA antigen (Anti-PSMA Fab [2]): 0.104

Binder: ESYTCVPMWMCTGF (Tested as clonal phage supernatant) [Phage-3582 (Peptide-180 library clone)]
- Phage binding ELISA signal, Anti-PSMA Fab (Anti-PSMA Fab [1]): 1.61
- Phage binding ELISA signal, Anti-PSMA Fab with PSMA antigen (Anti-PSMA Fab [2]): 0.088

Binder: NLGWCVPVWMCEGF (Tested as clonal phage supernatant) [Phage-3586 (Peptide-180 library clone)]
- Phage binding ELISA signal, Anti-PSMA Fab (Anti-PSMA Fab [1]): 1.61
- Phage binding ELISA signal, Anti-PSMA Fab with PSMA antigen (Anti-PSMA Fab [2]): 0.101

Binder: NIMRCQPSWMCTGF (Tested as clonal phage supernatant) [Phage-3583 (Peptide-180 library clone)]
- Phage binding ELISA signal, Anti-PSMA Fab (Anti-PSMA Fab [1]): 1.61
- Phage binding ELISA signal, Anti-PSMA Fab with PSMA antigen (Anti-PSMA Fab [2]): 0.064

Binder: EELMCRPVWMCLGF [Phage-3591]
- Phage binding ELISA signal, Anti-PSMA Fab (PSMA Fab [3]): 1.6
- Phage binding ELISA signal, Anti-PSMA Fab with PSMA antigen (PSMA Fab [4]): 0.0789

Binder: VETLCRPAWMCWGF [Phage-3598]
- Phage binding ELISA signal, Anti-PSMA Fab (PSMA Fab [3]): 1.59
- Phage binding ELISA signal, Anti-PSMA Fab with PSMA antigen (PSMA Fab [4]): 0.0788

B4: Phage-3604, clonal phage showing a Peptide-180 library peptide (peptide)
peptide: HVAMCQPTWMCMGF
modifications: cysteine pairing not given here; also: fused to pIII of bacteriophage, junction and order not given here
notes: as for B2
- Phage binding ELISA signal, Anti-PSMA Fab with PSMA antigen [7]: 0.123
- Phage binding ELISA signal, Anti-PSMA Fab [8]: 1.58

Binder: EIPWCVPSWMCNYF [Phage-3597]
- Phage binding ELISA signal, Anti-PSMA Fab (PSMA Fab [3]): 1.59
- Phage binding ELISA signal, Anti-PSMA Fab with PSMA antigen (PSMA Fab [4]): 0.0904

B5: Phage-3571 (peptide)
peptide: EMPLCIPQWMCGGF
notes: as for B1
- Phage binding ELISA signal, Anti-PSMA Fab (PSMA Fab (006 PSMA Fab) [5]): 1.62
- Phage binding ELISA signal, Anti-PSMA Fab in presence of PSMA (PSMA Fab (006 PSMA Fab) [6]): 0.0691

Binder: YDVVCKPAWMCNGF (Tested as clonal phage supernatant) [Phage-3578 (Peptide-180 library clone)]
- Phage binding ELISA signal, Anti-PSMA Fab (Anti-PSMA Fab [1]): 1.62
- Phage binding ELISA signal, Anti-PSMA Fab with PSMA antigen (Anti-PSMA Fab [2]): 0.0676

B6: Phage-3608, clonal phage showing a Peptide-180 library peptide (peptide)
peptide: ETVRCIPSWMCTGL
notes: as for B2
- Phage binding ELISA signal, Anti-PSMA Fab with PSMA antigen [7]: 0.0717
- Phage binding ELISA signal, Anti-PSMA Fab [8]: 1.58

Binder: MPGACVPLWMCYGF [Phage-3590]
- Phage binding ELISA signal, Anti-PSMA Fab (PSMA Fab [3]): 1.6
- Phage binding ELISA signal, Anti-PSMA Fab with PSMA antigen (PSMA Fab [4]): 0.0685

Binder: HEPVCKPSWMCTGL [Phage-3602]
- Phage binding ELISA signal, Anti-PSMA Fab (PSMA Fab [3]): 1.58
- Phage binding ELISA signal, Anti-PSMA Fab with PSMA antigen (PSMA Fab [4]): 0.0595

Binder: LERLCRPAWMCDGF [Phage-3596]
- Phage binding ELISA signal, Anti-PSMA Fab (PSMA Fab [3]): 1.59
- Phage binding ELISA signal, Anti-PSMA Fab with PSMA antigen (PSMA Fab [4]): 0.136

Binder: PDPLCVPNWMCIGL [Phage-3593]
- Phage binding ELISA signal, Anti-PSMA Fab (PSMA Fab [3]): 1.6
- Phage binding ELISA signal, Anti-PSMA Fab with PSMA antigen (PSMA Fab [4]): 0.0686

Binder: TEIRCQPQWMCHGF [Phage-3594]
- Phage binding ELISA signal, Anti-PSMA Fab (PSMA Fab [3]): 1.6
- Phage binding ELISA signal, Anti-PSMA Fab with PSMA antigen (PSMA Fab [4]): 0.0698

B7: Phage-3607, clonal phage showing a Peptide-180 library peptide (peptide)
peptide: LDIVCRPSWMCYGF
notes: as for B2
- Phage binding ELISA signal, Anti-PSMA Fab with PSMA antigen [7]: 0.0774
- Phage binding ELISA signal, Anti-PSMA Fab [8]: 1.58

Binder: HEPVCRPEWMCQGF (Tested as clonal phage supernatant) [Phage-3587 (Peptide-180 library clone)]
- Phage binding ELISA signal, Anti-PSMA Fab (Anti-PSMA Fab [1]): 1.6
- Phage binding ELISA signal, Anti-PSMA Fab with PSMA antigen (Anti-PSMA Fab [2]): 0.0717

B8: Phage-3605, clonal phage showing a Peptide-180 library peptide (peptide)
peptide: WTFKCEPVWMCEGF
notes: as for B2
- Phage binding ELISA signal, Anti-PSMA Fab with PSMA antigen [7]: 0.101
- Phage binding ELISA signal, Anti-PSMA Fab [8]: 1.58

B9: Phage-3575 (peptide)
peptide: FIAQCQPTWMCTGF
notes: as for B1
- Phage binding ELISA signal, Anti-PSMA Fab (PSMA Fab (006 PSMA Fab) [5]): 1.62
- Phage binding ELISA signal, Anti-PSMA Fab in presence of PSMA (PSMA Fab (006 PSMA Fab) [6]): 0.076

Binder: YEKLCEPRWMCDGF (Tested as clonal phage supernatant) [Phage-3577 (Peptide-180 library clone)]
- Phage binding ELISA signal, Anti-PSMA Fab (Anti-PSMA Fab [1]): 1.62
- Phage binding ELISA signal, Anti-PSMA Fab with PSMA antigen (Anti-PSMA Fab [2]): 0.0657

Binder: QLAMCVPLWMCYGF (Tested as clonal phage supernatant) [Phage-3580 (Peptide-180 library clone)]
- Phage binding ELISA signal, Anti-PSMA Fab (Anti-PSMA Fab [1]): 1.62
- Phage binding ELISA signal, Anti-PSMA Fab with PSMA antigen (Anti-PSMA Fab [2]): 0.092

Binder: GMGMCVPTWMCTGM (Tested as clonal phage supernatant) [Phage-3579 (Peptide-180 library clone)]
- Phage binding ELISA signal, Anti-PSMA Fab (Anti-PSMA Fab [1]): 1.62
- Phage binding ELISA signal, Anti-PSMA Fab with PSMA antigen (Anti-PSMA Fab [2]): 0.0797

B10: Phage-3573 (peptide)
peptide: AWMRCEPAWMCVGF
notes: as for B1
- Phage binding ELISA signal, Anti-PSMA Fab (PSMA Fab (006 PSMA Fab) [5]): 1.62
- Phage binding ELISA signal, Anti-PSMA Fab in presence of PSMA (PSMA Fab (006 PSMA Fab) [6]): 0.0695

Binder: VEKMCKPAWMCNVF [Phage-3592]
- Phage binding ELISA signal, Anti-PSMA Fab (PSMA Fab [3]): 1.6
- Phage binding ELISA signal, Anti-PSMA Fab with PSMA antigen (PSMA Fab [4]): 0.0777

Binder: TFMRCEPVWMCDGF (Tested as clonal phage supernatant) [Phage-3585 (Peptide-180 library clone)]
- Phage binding ELISA signal, Anti-PSMA Fab (Anti-PSMA Fab [1]): 1.61
- Phage binding ELISA signal, Anti-PSMA Fab with PSMA antigen (Anti-PSMA Fab [2]): 0.0709

Binder: VMHRCEPSWMCWGF [Phage-3601]
- Phage binding ELISA signal, Anti-PSMA Fab (PSMA Fab [3]): 1.58
- Phage binding ELISA signal, Anti-PSMA Fab with PSMA antigen (PSMA Fab [4]): 0.118

Binder: LGHWCSPTWMCMGF (Tested as clonal phage supernatant) [Phage-3581 (Peptide-180 library clone)]
- Phage binding ELISA signal, Anti-PSMA Fab (Anti-PSMA Fab [1]): 1.62
- Phage binding ELISA signal, Anti-PSMA Fab with PSMA antigen (Anti-PSMA Fab [2]): 0.11

Binder: QGVACIPTWMCTGF [Phage-3595]
- Phage binding ELISA signal, Anti-PSMA Fab (PSMA Fab [3]): 1.59
- Phage binding ELISA signal, Anti-PSMA Fab with PSMA antigen (PSMA Fab [4]): 0.0711

B11: Phage-3606, clonal phage showing a Peptide-180 library peptide (peptide)
peptide: VVVSCTPSWMCTGL
notes: as for B2
- Phage binding ELISA signal, Anti-PSMA Fab with PSMA antigen [7]: 0.0718
- Phage binding ELISA signal, Anti-PSMA Fab [8]: 1.58

Binder: ESHLCRPAWMCTGF (Tested as clonal phage supernatant) [Phage-3588 (Peptide-180 library clone)]
- Phage binding ELISA signal, Anti-PSMA Fab (Anti-PSMA Fab [1]): 1.6
- Phage binding ELISA signal, Anti-PSMA Fab with PSMA antigen (Anti-PSMA Fab [2]): 0.089

— patent publication US20260242478A1 (published 2026)
